In PMC4872106, “The evolutionary pathway from a biologically inactive polypeptide sequence to a folded, active structural mimic of DNA” (Nucleic Acids Research, 2016):

Key:
[1] = target: EcoKI Type I restriction/modification enzyme (R2M2S1) (E. coli, UniProt P08956 1-1170; P08957 1-529; P05719 1-464); assay: cell-based or functional assay
[2] = target: T1, M.EcoKI (the M2S1 methyltransferase core of the EcoKI Type I RM enzyme) (E. coli, UniProt P08957 1-529; P05719 1-464); assay: cell-based or functional assay
T1 sequence 1: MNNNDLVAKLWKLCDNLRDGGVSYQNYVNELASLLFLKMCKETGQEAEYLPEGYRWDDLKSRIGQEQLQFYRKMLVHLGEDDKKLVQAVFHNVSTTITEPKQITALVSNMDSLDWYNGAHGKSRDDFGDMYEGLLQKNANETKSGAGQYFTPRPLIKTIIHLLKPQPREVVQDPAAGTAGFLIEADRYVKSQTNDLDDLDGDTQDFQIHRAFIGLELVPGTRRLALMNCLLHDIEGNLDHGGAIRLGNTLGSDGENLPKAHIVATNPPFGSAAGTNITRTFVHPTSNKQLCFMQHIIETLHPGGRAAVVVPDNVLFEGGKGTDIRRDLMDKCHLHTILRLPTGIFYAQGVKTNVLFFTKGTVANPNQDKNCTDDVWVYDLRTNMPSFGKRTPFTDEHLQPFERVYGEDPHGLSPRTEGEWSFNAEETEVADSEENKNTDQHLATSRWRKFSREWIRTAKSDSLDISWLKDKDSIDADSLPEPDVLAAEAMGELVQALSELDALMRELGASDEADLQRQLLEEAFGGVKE
T1 sequence 2: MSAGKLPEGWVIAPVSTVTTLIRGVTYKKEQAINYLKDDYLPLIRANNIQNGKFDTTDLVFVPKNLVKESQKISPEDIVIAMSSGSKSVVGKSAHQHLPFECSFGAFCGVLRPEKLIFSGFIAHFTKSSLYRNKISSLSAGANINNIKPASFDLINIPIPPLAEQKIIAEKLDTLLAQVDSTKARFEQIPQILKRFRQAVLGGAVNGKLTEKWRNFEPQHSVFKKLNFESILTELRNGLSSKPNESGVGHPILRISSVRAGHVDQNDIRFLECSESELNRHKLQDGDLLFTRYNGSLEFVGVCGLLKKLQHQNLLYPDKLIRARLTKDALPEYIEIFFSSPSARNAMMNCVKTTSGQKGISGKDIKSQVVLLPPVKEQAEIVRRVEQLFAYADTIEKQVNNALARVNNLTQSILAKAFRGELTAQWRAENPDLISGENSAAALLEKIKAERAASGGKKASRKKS

[3] = target: T1, M.EcoKI (the M2S1 methyltransferase …); assay: ITC; as described in ref. 15 but in 20 mM HEPES buffer, pH 7.0; heat of interaction plotted against the molar ratio of Ocr dimer to M.EcoKI; details: both partners purified

EcoKI Type I restriction/modification enzyme (R2M2S1), sequence (P08956 whole entry, one chain of several): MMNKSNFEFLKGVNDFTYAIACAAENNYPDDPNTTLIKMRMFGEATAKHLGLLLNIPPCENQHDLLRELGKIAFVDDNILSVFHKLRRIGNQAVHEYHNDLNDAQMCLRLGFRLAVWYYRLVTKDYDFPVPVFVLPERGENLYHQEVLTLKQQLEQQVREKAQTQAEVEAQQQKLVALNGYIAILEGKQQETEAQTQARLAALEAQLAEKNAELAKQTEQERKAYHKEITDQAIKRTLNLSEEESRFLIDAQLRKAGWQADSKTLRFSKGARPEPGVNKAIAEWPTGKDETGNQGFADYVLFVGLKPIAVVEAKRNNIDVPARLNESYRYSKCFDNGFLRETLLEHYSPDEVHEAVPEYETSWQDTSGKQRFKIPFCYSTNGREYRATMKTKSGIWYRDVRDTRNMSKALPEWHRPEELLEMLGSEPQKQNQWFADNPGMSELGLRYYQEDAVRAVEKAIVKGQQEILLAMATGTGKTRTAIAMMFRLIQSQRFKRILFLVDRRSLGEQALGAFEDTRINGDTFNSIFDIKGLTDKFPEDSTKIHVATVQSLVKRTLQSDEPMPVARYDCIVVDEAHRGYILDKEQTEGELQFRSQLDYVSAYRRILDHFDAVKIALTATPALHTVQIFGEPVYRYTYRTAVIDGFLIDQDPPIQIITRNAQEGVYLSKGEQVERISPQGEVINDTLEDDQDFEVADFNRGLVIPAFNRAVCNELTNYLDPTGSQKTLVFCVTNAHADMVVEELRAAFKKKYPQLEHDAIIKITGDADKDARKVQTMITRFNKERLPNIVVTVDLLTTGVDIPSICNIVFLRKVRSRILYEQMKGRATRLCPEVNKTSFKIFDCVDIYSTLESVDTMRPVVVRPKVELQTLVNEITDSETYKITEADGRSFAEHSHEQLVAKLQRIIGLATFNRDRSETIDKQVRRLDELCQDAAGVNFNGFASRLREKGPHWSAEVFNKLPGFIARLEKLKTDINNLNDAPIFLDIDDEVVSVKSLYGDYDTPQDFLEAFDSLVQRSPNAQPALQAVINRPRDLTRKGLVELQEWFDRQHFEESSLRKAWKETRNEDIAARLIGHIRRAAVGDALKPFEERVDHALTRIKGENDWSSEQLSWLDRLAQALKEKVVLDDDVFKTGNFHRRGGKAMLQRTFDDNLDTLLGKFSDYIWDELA

B1: Ocr (overcome classical restriction) from bacteriophage T7, wild type (natural protein, UniProt P03775 1-117, looked up)
chain: MAMSNMTYNNVFDHAYEMLKENIRYDDIRDTDDLHDAIHMAADNAVPHYYADIFSVMASEGIDLEFEDSGLMPDTKDVIRILQARIYEQLTIDLWEDAEDLLNEYLEEVEEYEEDEE
notes: Ocr, product of bacteriophage T7 gene 0.3; homodimer of a polypeptide of 116 amino acids (34 acidic and 6 basic residues per monomer); also called wild-type Ocr; gene 0.3 protein
in vivo antirestriction: efficiency of plating of phage lambda v.o on E. coli NM1049(DE3) (r+m+, EcoKI) relative to NM1261(DE3) (r-m-), strains expressing Ocr (vector alone 5x10^-5) [1]: 4 eop
in vivo antimodification: efficiency of plating on E. coli NM1041 (r+m+) relative to NM1057 (r-m+) of phage lambda v.o recovered from NM1057 expressing Ocr (vector alone 1) [2]: 0.00014 eop
stoichiometry N [3]: 1 Ocr dimer per M.EcoKI
